Laboratory results published in publication PMC6385242, “Identification and characterization of a factor Va-binding site on human prothrombin fragment 2” (Scientific Reports, 2019).

Target: T1, Wild-type prothrombin (human, UniProt P00734 44-622)
T1 construct: prothrombin, human
Assay: SPR; Biacore T200; FVa amine-coupled on a CM5 chip (8000-9000 RU); prothrombin 0-10,000 nM injected for 60 s at 30 uL/min; HBS (0.02 M HEPES, 0.15 M NaCl, pH 7.4) with 5 mM CaCl2 and 0.01% Tween-80; kinetic 1:1 Langmuir model
Details: both partners purified

- Kd: 1000 nM
B1: Factor Va (complex)
heavy: AQLRQFYVAAQGISWSYRPEPTNSSLNLSVTSFKKIVYREYEPYFKKEKPQSTISGLLGPTLYAEVGDIIKVHFKNKADKPLSIHPQGIRYSKLSEGASYLDHTFPAEKMDDAVAPGREYTYEWSISEDSGPTHDDPPCLTHIYYSHENLIEDFNSGLIGPLLICKKGTLTEGGTQKTFDKQIVLLFAVFDESKSWSQSSSLMYTVNGYVNGTMPDITVCAHDHISWHLLGMSSGPELFSIHFNGQVLEQNHHKVSAITLVSATSTTANMTVGPEGKWIISSLTPKHLQAGMQAYIDIKNCPKKTRNLKKITREQRRHMKRWEYFIAAEEVIWDYAPVIPANMDKKYRSQHLDNFSNQIGKHYKKVMYTQYEDESFTKHTVNPNMKEDGILGPIIRAQVRDTLKIVFKNMASRPYSIYPHGVTFSPYEDEVNSSFTSGRNNTMIRAVQPGETYTYKWNILEFDEPTENDAQCLTRPYYSDVDIMRDIASGLIGLLLICKSRSLDRRGIQRAADIEQQAVFAVFDENKSWYLEDNINKFCENPDEVKRDDPKFYESNIMSTINGYVPESITTLGFCFDDTVQWHFCSVGTQNEILTIHFTGHSFIYGKRHEDTLTLFPMRGESVTVTMDNVGTWMLTSMNSSPRSKKLRLKFRDVKCIPDDDEDSYEIFEPPESTVMATRKMHDRLEPEDEESDADYDYQNRLAAALGIR
light: SNNGNRRNYYIAAEEISWDYSEFVQRETDIEDSDDIPEDTTYKKVVFRKYLDSTFTKRDPRGEYEEHLGILGPIIRAEVDDVIQVRFKNLASRPYSLHAHGLSYEKSSEGKTYEDDSPEWFKEDNAVQPNSSYTYVWHATERSGPESPGSACRAWAYYSAVNPEKDIHSGLIGPLLICQKGILHKDSNMPMDMREFVLLFMTFDEKKSWYYEKKSRSSWRLTSSEMKKSHEFHAINGMIYSLPGLKMYEQEWVRLHLLNIGGSQDIHVVHFHGQTLLENGNKQHQLGVWPLLPGSFKTLEMKASKPGWWLLNTEVGENQRAGMQTPFLIMDRDCRMPMGLSTGIISDSQIKASEFLGYWEPRLARLNNGGSYNAWSVEKLAAEFASKPWIQVDMQKEVIITGIQTQGAKHYLKSCYTTEFYVAYSSNQINWQIFKGNSTRNVMYFNGNSDASTIKENQFDPPIVARYIRISPTRAYNRPTLRLELQGCEVNGCSTPLGMENGKIENKQITASSFKKSWWGDYWEPFRARLNAQGRVNAWQAKANNNKQWLEIDLLKIKKITAIITQGCKSLSSEMYVKSYTIHYSEQGVEWKPYRLKSSMVDKIFEGNTNTKGHVKNFFNPPIISRFIRVIPKTWNQSIALRLELFGCDIY
notes: heavy chain of factor Va; light chain of factor Va; Bovine FVa is named only for the preparation of the heavy chain for NMR; the source of the FVa of the other experiments is in the Supplementary Materials; also called FVa
